# From publication PMC2700399 (The Journal of Cell Biology, 2009)
# T1: TAP-tagged Ndc1 (S. cerevisiae, UniProt P32500 1-655)
# T1 sequence (looked up): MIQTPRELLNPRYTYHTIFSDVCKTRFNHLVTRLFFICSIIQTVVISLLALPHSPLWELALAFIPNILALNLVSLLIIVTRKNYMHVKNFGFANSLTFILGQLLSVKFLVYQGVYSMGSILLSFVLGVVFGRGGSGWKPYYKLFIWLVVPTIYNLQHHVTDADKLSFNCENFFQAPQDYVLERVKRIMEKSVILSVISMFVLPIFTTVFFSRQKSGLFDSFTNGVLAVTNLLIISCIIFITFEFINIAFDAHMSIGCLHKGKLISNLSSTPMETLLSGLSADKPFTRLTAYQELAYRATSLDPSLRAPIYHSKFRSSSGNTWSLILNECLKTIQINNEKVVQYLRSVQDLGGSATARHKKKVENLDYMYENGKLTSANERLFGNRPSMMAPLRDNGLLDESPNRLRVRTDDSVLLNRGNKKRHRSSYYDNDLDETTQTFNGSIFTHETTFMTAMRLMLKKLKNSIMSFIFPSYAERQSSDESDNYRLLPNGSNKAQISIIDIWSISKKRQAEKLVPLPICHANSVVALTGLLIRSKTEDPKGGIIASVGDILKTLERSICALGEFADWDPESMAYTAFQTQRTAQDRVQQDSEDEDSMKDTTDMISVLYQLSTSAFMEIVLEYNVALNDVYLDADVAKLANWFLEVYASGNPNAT
# B1: GST-Nup59 (natural protein, S. cerevisiae, UniProt Q05166 1-528, looked up)
# chain: MFGIRSGNNNGGFTNLTSQAPQTTQMFQSQSQLQPQPQPQPQQQQQHLQFNGSSDASSLRFGNSLSNTVNANNYSSNIGNNSINNNNIKNGTNNISQHGQGNNPSWVNNPKKRFTPHTVIRRKTTKQNSSSDINQNDDSSSMNATMRNFSKQNQDSKHNERNKSAANNDINSLLSNFNDIPPSVTLQDWQREDEFGSIPSLTTQFVTDKYTAKKTNRSAYDSKNTPNVFDKDSYVRIANIEQNHLDNNYNTAETNNKVHETSSKSSSLSAIIVFGYPESISNELIEHFSHFGHIMEDFQVLRLGRGINPNTFRIFHNHDTGCDENDSTVNKSITLKGRNNESNNKKYPIFTGESWVKLTYNSPSSALRALQENGTIFRGSLIGCIPYSKNAVEQLAGCKIDNVDDIGEFNVSMYQNSSTSSTSNTPSPPNVIITDGTLLREDDNTPAGHAGNPTNISSPIVANSPNKRLDVIDGKLPFMQNAGPNSNIPNLLRNLESKMRQQEAKYRNNEPAGFTHKLSNWLFGWNDL
# B2: 6xHis-MBP-Nup59 (natural protein, S. cerevisiae, UniProt Q05166 1-528, looked up)
# chain: B1 chain
# B3: 6xHis-MBP-Nup53 (natural protein, S. cerevisiae, UniProt Q03790 1-475, looked up)
# chain: MADLQKQENSSRFTNVSVIAPESQGQHEQQKQQEQLEQQKQPTGLLKGLNGFPSAPQPLFMEDPPSTVSGELNDNPAWFNNPRKRAIPNSIIKRSNGQSLSPVRSDSADVPAFSNSNGFNNVTFGSKKDPRILKNVSPNDNNSANNNAHSSDLGTVVFDSNEAPPKTSLADWQKEDGIFSSKTDNIEDPNLSSNITFDGKPTATPSPFRPLEKTSRILNFFDKNTKTTPNTASSEASAGSKEGASTNWDDHAIIIFGYPETIANSIILHFANFGEILEDFRVIKDFKKLNSKNMSKSPSLTAQKYPIYTGDGWVKLTYKSELSKSRALQENGIIMNGTLIGCVSYSPAALKQLASLKKSEEIINNKTSSQTSLSSKDLSNYRKTEGIFEKAKAKAVTSKVRNAEFKVSKNSTSFKNPRRLEIKDGRSLFLRNRGKIHSGVLSSIESDLKKREQASKSKKSWLNRLNNWLFGWNDL
# B4: GST-Nup53(376-475) (domain or fragment, S. cerevisiae, UniProt Q03790 376-475, looked up)
# chain: KDLSNYRKTEGIFEKAKAKAVTSKVRNAEFKVSKNSTSFKNPRRLEIKDGRSLFLRNRGKIHSGVLSSIESDLKKREQASKSKKSWLNRLNNWLFGWNDL
# Columns and labels:
# TAP-tagged Ndc1 = target: T1, TAP-tagged Ndc1; experiment: pull-down
# TAP-Nup170 = TAP-Nup170 (S. cerevisiae, UniProt P38181 1-1502); experiment: pull-down
# Chain of TAP-Nup170 (P38181 whole entry): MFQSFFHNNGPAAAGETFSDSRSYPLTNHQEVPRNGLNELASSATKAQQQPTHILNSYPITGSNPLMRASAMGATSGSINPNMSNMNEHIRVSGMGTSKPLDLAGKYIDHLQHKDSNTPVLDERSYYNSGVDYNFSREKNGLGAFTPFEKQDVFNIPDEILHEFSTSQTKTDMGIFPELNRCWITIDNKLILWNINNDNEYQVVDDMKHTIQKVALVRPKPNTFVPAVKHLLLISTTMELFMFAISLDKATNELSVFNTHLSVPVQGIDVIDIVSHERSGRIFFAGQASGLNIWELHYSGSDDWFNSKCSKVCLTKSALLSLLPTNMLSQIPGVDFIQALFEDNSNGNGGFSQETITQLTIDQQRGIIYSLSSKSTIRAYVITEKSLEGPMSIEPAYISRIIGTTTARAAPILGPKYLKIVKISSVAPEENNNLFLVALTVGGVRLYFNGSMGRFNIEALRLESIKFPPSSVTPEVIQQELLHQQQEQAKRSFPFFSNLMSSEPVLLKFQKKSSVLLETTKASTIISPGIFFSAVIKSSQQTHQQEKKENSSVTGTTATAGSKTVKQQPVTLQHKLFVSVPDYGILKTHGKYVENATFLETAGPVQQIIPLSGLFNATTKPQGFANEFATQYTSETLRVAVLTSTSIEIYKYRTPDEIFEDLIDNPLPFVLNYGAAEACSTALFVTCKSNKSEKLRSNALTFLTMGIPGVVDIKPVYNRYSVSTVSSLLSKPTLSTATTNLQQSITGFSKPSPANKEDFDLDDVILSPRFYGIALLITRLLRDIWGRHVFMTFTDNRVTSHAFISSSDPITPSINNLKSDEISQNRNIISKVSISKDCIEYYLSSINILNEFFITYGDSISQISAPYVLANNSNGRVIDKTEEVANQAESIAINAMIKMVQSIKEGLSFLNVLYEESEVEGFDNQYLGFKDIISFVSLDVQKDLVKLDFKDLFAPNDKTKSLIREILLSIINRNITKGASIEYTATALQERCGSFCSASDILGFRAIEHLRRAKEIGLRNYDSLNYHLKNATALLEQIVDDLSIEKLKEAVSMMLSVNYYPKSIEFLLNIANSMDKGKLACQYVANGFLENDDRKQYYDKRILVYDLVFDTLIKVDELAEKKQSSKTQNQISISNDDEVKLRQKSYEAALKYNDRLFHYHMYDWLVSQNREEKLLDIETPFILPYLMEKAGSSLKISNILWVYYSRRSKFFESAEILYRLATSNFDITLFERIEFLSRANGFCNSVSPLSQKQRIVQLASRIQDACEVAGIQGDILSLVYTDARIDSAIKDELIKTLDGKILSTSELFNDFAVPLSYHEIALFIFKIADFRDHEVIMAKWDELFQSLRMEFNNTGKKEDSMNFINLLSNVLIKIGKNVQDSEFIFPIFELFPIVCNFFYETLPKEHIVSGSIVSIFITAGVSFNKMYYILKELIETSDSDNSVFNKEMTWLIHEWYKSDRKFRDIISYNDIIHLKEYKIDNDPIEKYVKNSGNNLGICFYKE
Binder,binding result (TAP-tagged Ndc1),binding result (TAP-Nup170)
B1,binds,–
B2,–,binds
B3,–,binds
B4,binds,–
